In series [1] the test system is MM1s (multiple myeloma) cell genome. As to the kind of experiment: ctDNA coculture with MM1s cells, whole genome sequencing: genomic insertion sites, transposons at insertion points and SNVs (multiple myeloma). The series is classed as cell-based, human. The settings on record: TABLE 7, multiple myeloma co-culture.
In the next series the test system is MM1s and U266 cells. In words: Cell capture of several transposons in two MM cell lines at 4 hours, flow cytometry. The series is classed as cell-based, human. As to conditions: 4 hours of culture. As for the experimental part: The variability of cell capture of several transposons was tested in two MM cell lines at 4 hours of culture.
For orientation: In flow cytometry, cells or beads pass a laser one at a time.

The subject of series [2] is plasma cells (CD138+) and non-plasma cells (CD138−) of bone marrow. In words: Cell targeting in bone marrow samples from patients with and without multiple myeloma, flow cytometry. Type of series: cell-based, human. As for the experimental part: FIG. 10 provides illustrative flow cytometry scatterplots displaying the cell capture of AluSp, MER11, and control transposon sequence in plasma cells (CD138+) and non-plasma cells (CD138−) derived from bone marrow of multiple myeloma patients.
Data for plasma cells (CD138+) and non-plasma cells (CD138−) are separately shown.
Cell targeting of the AluSp and MER11C sequences was tested in bone marrow samples derived from patients with and without multiple myeloma.

Series [3] deals with multiple myeloma cell line. In words: Uptake of fluorescent MM2 fragments, fluorescent microscopy. Type of series: cell-based. As to conditions: Fluorescein 12 dCTP labelled PCR products. As for the experimental part: FIG. 19 provides fluorescence microcopy images showing uptake of fluorescently labelled synthetic DNA derived from a multiple myeloma ctDNA (MM2 (1-290), MM2 (89-290), MM2 (177-290), and MM2 (1-201), and MM2 (1-113)), or a control sequence.
Fluorescein 12 dCTP from Perkin Elmer was used to label the PCR products, which were purified after the reaction.
In an initial study, fragments were generated as follows:
The fluorescent DNA sequences were incubated with multiple a myeloma cell line and uptake was evaluated by fluorescent microscopy.
The study was repeated with 5′FAM-labelled primers, with similar results.

Series [4] deals with HFF (fibroblast), DU145 (prostate cancer), and MCF10A (breast). As to the kind of experiment: Uptake of MM2 fragments in different cell types. The series is classed as cell-based. The text has this:
(§1) FIG. 20 provides fluorescence microcopy images evaluating uptake of fluorescently labelled synthetic DNA derived from a multiple myeloma ctDNA (MM2 (1-290), MM2 (89-290), MM2 (177-290), and MM2 (1-201), and MM2 (1-113)) by multiple myeloma/B cell lines (MM1S and RPMI) and cell lines of other cell types (HFF—fibroblast, DU145—prostate cancer, MCF10A breast).
(§2) A follow-up experiment evaluated uptake of the fragments in different cell types, with counterstaining to identify nuclei (DAPI) and cytoplasm (Texas red-phalloidin).

Series [5] concerns MM/B cell lines (MM1S and RPMI). As to the kind of experiment: Uptake of MM2 fragments in different cell types. The settings on record: DAPI and Texas red-phalloidin counterstain. The series is classed as cell-based.
Description: as §1, §2

Series [6] concerns MM cell lines MM1S, JK6L, and RPMI. In words: Uptake of additional MM2 fragments, fluorescent microscopy. The series is classed as cell-based. As to conditions: Fluorescein 12 dCTP or 5′FAM labelling. As for the experimental part:
FIG. 21 provides microcopy images showing uptake of 5′ fluorescently labelled synthetic DNA fragments derived from a multiple myeloma ctDNA by MM cells (JK6L) or non-MM cells.
Additional fragments were generated to analyze further the sequence to identify a region that contributes to uptake by MM cells (e.g., a recognition sequence). The following sequences were generated with Fluorescein 12 dCTP or 5′FAM labelling:
The fluorescent DNA sequences were incubated with multiple cell lines (e.g., MM cell lines MM1S, JK6L, and RPMI, and non-MM cell lines HT1080, HCT116, and DU145) and uptake was evaluated by fluorescent microscopy. […] Specificity of uptake by MM cells was preserved as shown by a lack of uptake by HT1080 and HCT116 cells (FIG. 21).

B1: CY5-MER11C: synthesized MM retrotransposon MER11C, labelled with CY5 (nucleic acid, listed as Homo sapiens)
DNA: TATCGAAAATTCACCCCCGATATTCACGTAGGTTCTTTTCTATTTTCCCTAAGCGTCGGCAGGTTTGAGAAATAAAGGGACAGAGTACAAAAGAGAGAAATTTTAAAGCTGGGCGTCCGGGGGAGACATCACATGTTGGTAGGTTCCATGATGCCCCACAAGCCGTAAAAACCAGCAAGTTTTTATTAGTGATTTTCAAAAGGGGAGGGAGTGTACGAATAGGTGTGGGTCACAGAGATCACGTGCTTCACAAGGTAATAGAATATCACAAGGCAAATGGAGGCAGGGCGAGATCACAGGACCACAGGACCGGGGTGAAATTAAAATTGCTAATGAAGTTTTGGGCACCATTGTCATTGATAACATCTTATCAGGAGACAGGGTTTGAGAGACAACCGGTCTGACCAAAATTTATTAGGTGGGAATTTCCTCGTCCTAATAAGCCTGGGAGTGCTATGGGAGACTGGGGCTTATTTCATCCCGTAGAGGCAACCATAAAAGACAGGCCCAAGCGGCCATTTAGAGCCTCCCAGGACATTCTCTTTCTCAGGGTGTTCCTTGCTGAGAAAAAGAATTCAGATATTTCTCCATTTGCTTTTGAAAGAAGAGAAATATGGCTCTGTTCCCGGCTCACGGCGCAGATTTAAGGTTATCTCCTTTTCCCTGAACAATTGCTGTTATCCTGTTCTTTTTTCAAGGTGCCCAGATTTCATATTGTTCAAACACACATGCTTACAATTTGTGCAGTTAAGCAATATCACAGGGTCCTGAGGGACATACATCCTCCTCAGCTGACAGGATTAAGAGATTAAAGTAAAGACAGGCATAGGAAATCACAAGGGTATTGATTGGGGAAGTGATAAGTGTCCATGAAATCTTCACAATTTATGTTTAGAGATTGCAGTAAAGACAGGCATAAGAAATTATAAAAGTATTAATTTGGGGAACTAATAAATGTCCATGAAATCTTCACAATCCACGTTCTTCTGCCATGGCTTCAGCCGGTCCCTCCGTTCGGGGTCCCTGACTTCCCGCAACA
modifications: CY5 label
For the molecule B1, in series [1] (BLAST alignment orientation), the blast orientation result is listed as “Plus/Plus”. The blast chr entry in series [1] (chromosome with the longest result for BLAST analysis of the full contig) is “chr14”. The Distance from insertion in series [1] (distance between insertion and the transposon (0 if they overlap)) worked out at 0. For the same molecule, in series [1] (location of the transposon relative to the insertion on the contig), the “Location relative to insertion” value was “intersect”. For the same molecule, the cell capture entry in the series with MM1s and U266 cells is “higher than that of the other transposons, the control sequence, and PC transposons”. For the same molecule, the “signal in plasma cells of MM patients vs non-MM CD138 (−) cells compartment” value in series [2] (14 hours) is recorded as “higher levels of signal”. The “CY5 positive plasma cells” value in series [2] (14 hours of culture, vs control sequence or PC specific sequence) is given as “more CY5 positive plasma cells”.

B2: MM2 (1-201): fluorescently labelled fragment of MM2 (1-290) (nucleic acid, listed as Homo sapiens)
DNA: ACCCGGCCTTGGACACGCCATTTTCAACTCCGTGGTGCGTTTTTTTTTTTTTTTTTTTTTTTTTGTAATGGAGTTTCGCTCTTGTTGCCCAGGATGGAGTGCAAGGGATCTTGGCTCACCACAGCCTCCGCCTCTTGGGTTCAAGTGATTCTTCTGCCTCAGCCTCCCAAGTAGCTGGGATTATAAGCACCCACCACCACG
modifications: fluorescent label
As to B2, the uptake entry in series [3] is reported as “observed”; in series [4], “not”; in series [5] it was “observed”.

B3: MM2 (88-168): fluorescently labelled fragment of MM2 (nucleic acid, listed as Homo sapiens)
DNA: CCAGGATGGAGTGCAAGGGATCTTGGCTCACCACAGCCTCCGCCTCTTGGGTTCAAGTGATTCTTCTGCCTCAGCCTCCC
modifications: DNA, all phosphodiester, methylation of C not given here; fluorescein label via fluorescein-12-dCTP or 5' FAM primer
With B3, the “uptake by MM cells” value in series [6] is “sufficient for uptake”.
